Assay [1] addresses native human HER2 (human) (UniProt P04626). Briefly: cell-based or functional assay.
The target is the same in assay [2]. Description: inhibition of 125I-rHRGβ1 binding to MCF7 monolayers on ice; labeled ligand rHRGβ1.

Experimental findings from patent US20020035736A1 are described below.

On to murine monoclonal antibody 2C4, for which the HRG stimulation of p180 tyrosine phosphorylation in MCF7 cells in assay [1] was < 25 % of control. In assay [2], this substance came in with a maximum inhibition of HRG binding of 74%.

As to murine monoclonal antibody 4D5, the inhibition of cell proliferation of SK-BR-3 cells (crystal violet) in assay [1] was 66%.
